7 molecules from patent US20250154253A1 (ROCKEFELLER UNIVERSITY, published 2025) can be followed below.

Test [1] has as its target T1, FcγRI (human, UniProt P12314).
T1 construct: also called human FcγRI; hFcγRI
Description: no assay stated; drawn summary table of graded binding (- to ++++), for which the text cites Weitzenfeld et al. 2019.

Test [2] addresses T2, FcγRIIb (human, UniProt P31994).
T2 construct: also called human FcγRIIb; hFcγRIIB
T2 sequence (receptor, looked up): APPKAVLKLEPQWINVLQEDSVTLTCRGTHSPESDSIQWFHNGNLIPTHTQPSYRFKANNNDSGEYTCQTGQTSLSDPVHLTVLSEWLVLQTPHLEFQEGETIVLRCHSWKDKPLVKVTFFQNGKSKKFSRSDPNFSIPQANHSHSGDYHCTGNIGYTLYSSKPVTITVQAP
Described as above.

The target of test [3] is T3, FcγRIIb (mouse, UniProt P08101).
T3 construct: also called mouse FcγRIIb; mFcγRIIB
T3 sequence (receptor, looked up): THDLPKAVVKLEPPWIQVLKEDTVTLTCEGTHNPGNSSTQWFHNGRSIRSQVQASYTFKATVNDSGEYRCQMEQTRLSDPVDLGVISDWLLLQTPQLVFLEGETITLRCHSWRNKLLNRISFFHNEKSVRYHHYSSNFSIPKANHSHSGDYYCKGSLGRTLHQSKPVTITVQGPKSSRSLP
Description: no assay stated; drawn summary table of graded binding (- to ++++), for which the text cites Nimmerjahn et al. 2005.

For the next test, the target named is T4, FcγRIII (mouse, UniProt P08508).
T4 construct: also called mouse FcγRIII; mFcγRIII
T4 sequence (receptor, looked up): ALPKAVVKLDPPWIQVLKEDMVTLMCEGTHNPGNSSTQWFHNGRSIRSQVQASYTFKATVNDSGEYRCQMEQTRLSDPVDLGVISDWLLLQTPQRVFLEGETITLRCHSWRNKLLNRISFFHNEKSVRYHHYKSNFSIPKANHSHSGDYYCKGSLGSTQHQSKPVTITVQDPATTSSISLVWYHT
The description is as above.

Test [4] has as its target T5, FcγRI (mouse, UniProt P26151).
T5 construct: also called mouse FcγRI; mFcγRI
T5 sequence (receptor, looked up): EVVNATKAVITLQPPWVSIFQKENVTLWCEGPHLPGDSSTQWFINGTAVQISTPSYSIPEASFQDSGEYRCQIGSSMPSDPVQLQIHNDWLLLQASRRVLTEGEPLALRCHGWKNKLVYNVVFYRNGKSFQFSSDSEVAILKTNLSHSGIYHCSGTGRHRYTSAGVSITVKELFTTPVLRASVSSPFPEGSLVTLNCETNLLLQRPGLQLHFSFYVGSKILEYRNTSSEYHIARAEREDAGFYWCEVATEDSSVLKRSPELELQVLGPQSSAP
The test is described as above.

For test [5], the target named is T6, recombinant human SIRPα-hFc (SinoBiological 11612-H02H1) (human, UniProt P78324 31-370).
T6 construct: Bought fusion protein; also called hSIRPα; recombinant hSIRPα; not shown: human Fc (hFc)
T6 sequence (P78324 31-370 limits assumed): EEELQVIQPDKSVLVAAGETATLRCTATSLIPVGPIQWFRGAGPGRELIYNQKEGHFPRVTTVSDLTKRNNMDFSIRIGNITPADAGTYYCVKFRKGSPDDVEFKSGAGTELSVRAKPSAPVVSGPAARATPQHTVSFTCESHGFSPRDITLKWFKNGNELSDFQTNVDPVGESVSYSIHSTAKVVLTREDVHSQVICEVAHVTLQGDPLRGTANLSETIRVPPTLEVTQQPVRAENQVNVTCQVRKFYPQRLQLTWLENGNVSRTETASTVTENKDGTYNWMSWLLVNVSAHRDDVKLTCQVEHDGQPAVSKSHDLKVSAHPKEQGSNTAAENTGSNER
The experiment in a line: flow cytometry: recombinant hSIRPα incubated with RBCs of WT mice.

In the next test the target is T7, FcγRIV.
T7 construct: also called mouse FcγRIV; mFcγRIV
T7 chain: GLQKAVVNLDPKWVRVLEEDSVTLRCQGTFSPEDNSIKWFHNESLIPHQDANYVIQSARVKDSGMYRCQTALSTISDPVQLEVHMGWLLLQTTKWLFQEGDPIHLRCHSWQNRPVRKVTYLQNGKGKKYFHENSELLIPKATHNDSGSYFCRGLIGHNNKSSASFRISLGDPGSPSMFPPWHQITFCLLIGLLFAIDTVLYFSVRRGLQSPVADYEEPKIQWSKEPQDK
The experiment in a line: no assay stated; drawn summary table of graded binding (- to ++++), for which the text cites Nimmerjahn et al. 2005.

Test [6] addresses T8, recombinant mouse CD47 (SinoBiological 57231-MNAH) (mouse, UniProt Q61735 19-140, limits assumed).
T8 construct: Bought protein coated on ELISA plates at 1 ug/mL; also called mCD47
T8 sequence (looked up): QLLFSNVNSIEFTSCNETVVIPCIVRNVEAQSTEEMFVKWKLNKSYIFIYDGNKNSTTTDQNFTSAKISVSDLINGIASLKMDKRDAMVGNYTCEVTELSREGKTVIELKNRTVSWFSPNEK
The experiment in a line: ELISA on plate-coated recombinant mouse CD47 (1 ug/mL), HRP-conjugated anti-IgG, absorbance 450 nm. In general terms: ELISA stands for enzyme-linked immunosorbent assay.

T1 sequence (P12314 16-288 limits assumed): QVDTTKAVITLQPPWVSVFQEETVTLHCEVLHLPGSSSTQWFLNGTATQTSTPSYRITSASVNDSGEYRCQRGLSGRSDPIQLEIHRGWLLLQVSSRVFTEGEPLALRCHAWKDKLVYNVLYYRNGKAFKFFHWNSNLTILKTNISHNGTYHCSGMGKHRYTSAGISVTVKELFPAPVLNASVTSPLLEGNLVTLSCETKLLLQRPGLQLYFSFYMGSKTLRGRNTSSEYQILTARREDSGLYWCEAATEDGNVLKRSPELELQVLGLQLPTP

B1: 5F9-GAALIE (antibody, human IgG1)
heavy chain: QVQLVQSGAEVKKPGASVKVSCKASGYTFTNYNMHWVRQAPGQRLEWMGTIYPGNDDTSYNQKFKDRVTITADTSASTAYMELSSLRSEDTAVYYCARGGYRAMDYWGQGTLVTVSSASTKGPSVFPLAPSSKSTSGGTAALGCLVKDYFPEPVTVSWNSGALTSGVHTFPAVLQSSGLYSLSSVVTVPSSSLGTQTYICNVNHKPSNTKVDKRVEPKSCDKTHTCPPCPAPELLAGPSVFLFPPKPKDTLMISRTPEVTCVVVDVSHEDPEVKFNWYVDGVEVHNAKTKPREEQYNSTYRVVSVLTVLHQDWLNGKEYKCKVSNKALPLPEEKTISKAKGQPREPQVYTLPPSREEMTKNQVSLTCLVKGFYPSDIAVEWESNGQPENNYKTTPPVLDSDGSFFLYSKLTVDKSRWQQGNVFSCSVMHEALHNHYTQKSLSLSPGK
light chain: DIVMTQSPLSLPVTPGEPASISCRSSQSIVYSNGNTYLGWYLQKPGQSPQLLIYKVSNRFSGVPDRFSGSGSGTDFTLKISRVEAEDVGVYYCFQGSHVPYTFGQGTKLEIKVDAPSVFIFPPSDEQLKSGTASVVCLLNNFYPREAKVQWKVDNALQSGNSQESVTEQDSKDSTYSLSSTLTLSKADYEKHKVYACEVTHQGLSSPVTKSFNRGEC
notes: also called 5F9-hIgG1-GAALIE; GAALIE 5F9 ab
As to B1, the binding result with FcγRI [1] and with FcγRIIb [2] was “binds” throughout.

B2: IgG2a (antibody)
heavy chain constant region: TTAPSVYPLAPVCGGTTGSSVTLGCLVKGYFPEPVTLTWNSGSLSSGVHTFPALLQSGLYTLSSSVTVTSNTWPSQTITCNVAHPASSTKVDKKIEPRVPITQNPCPPLKECPPCAAPDLLGGPSVFIFPPKIKDVLMISLSPMVTCVVVDVSEDDPDVQISWFVNNVEVHTAQTQTHREDYNSTLRVVSALPIQHQDWMSGKEFKCKVNNRALPSPIEKTISKPRGPVRAPQVYVLPPPAEEMTKKEFSLTCMITGFLPAEIAVDWTSNGRTEQNYKNTATVLDSDGSYFMYSKLRVQKSTWERGSLFACSVVHEGLHNHLTTKTISRSLGK
notes: The variable region is not specified there; also called mIgG2a; mouse IgG2a subclass (Fc format)
For the molecule B2, the binding result in the test with FcγRIIb [3], in the test with FcγRIII and with FcγRI [4] was “binds” throughout.

B3: mouse CD47 on RBCs of WT (C57BL/6J) mice (receptor, UniProt Q61735 19-303, looked up)
chain: QLLFSNVNSIEFTSCNETVVIPCIVRNVEAQSTEEMFVKWKLNKSYIFIYDGNKNSTTTDQNFTSAKISVSDLINGIASLKMDKRDAMVGNYTCEVTELSREGKTVIELKNRTVSWFSPNEKILIVIFPILAILLFWGKFGILTLKYKSSHTNKRIILLLVAGLVLTVIVVVGAILLIPGEKPVKNASGLGLIVISTGILILLQYNVFMTAFGMTSFTIAILITQVLGYVLALVGLCLCIMACEPVHGPLLISGLGIIALAELLGLVYMKFVASNQRTIQPPRNR
notes: whole, on cells; The legend names the cells (RBCs from WT mice); also called mCD47 on WT RBCs
Take B3: in test [5], the binding result is reported as “no binding”.

B4: IgG1 D265A (antibody)
heavy chain constant region: TKGPSVYPLAPGSAAQTNSMVTLGCLVKGYFPEPVTVTWNSGSLSSGVHTFPAVLQSDLYTLSSSVTVPSSTWPSQTVTCNVAHPASSTKVDKKIVPRDCGCKPCICTVPEVSSVFIFPPKPKDVLTITLTPKVTCVVVAISKDDPEVQFSWFVDDVEVHTAQTKPREEQINSTFRSVSELPIMHQDWLNGKEFKCRVNSAAFPAPIEKTISKTKGRPKAPQVYTIPPPKEQMAKDKVSLTCMITNFFPEDITVEWQWNGQPAENYKNTQPIMDTDGSYFVYSKLNVQKSNWEAGNTFTCSVLHEGLHNHHTEKSLSHSPGK
notes: also called mIgG1-D265A; mouse IgG1 D265A (Fc format)
Turning to B4, the binding result with FcγRIV, with FcγRIIb [3], with FcγRIII and in the test with FcγRI [4] was “no binding” each time.

B5: MIAP301-mIgG1-D265A (antibody)
heavy: QVKLLQSGAALVKPGASVKMSCQASGYSFTDYWVTWVKQSHGQSLEWIGEIYPSNTVTNFNDNFKGKATLTVDKSTSTAYMELSRLTSEDSAIYYCTRLGNSGYRVGWFLYWGQGTLVTVISASTKGPSVYPLAPGSAAQTNSMVTLGCLVKGYFPEPVTVTWNSGSLSSGVHTFPAVLQSDLYTLSSSVTVPSSTWPSQTVTCNVAHPASSTKVDKKIVPRDCGCKPCICTVPEVSSVFIFPPKPKDVLTITLTPKVTCVVVAISKDDPEVQFSWFVDDVEVHTAQTKPREEQINSTFRSVSELPIMHQDWLNGKEFKCRVNSAAFPAPIEKTISKTKGRPKAPQVYTIPPPKEQMAKDKVSLTCMITNFFPEDITVEWQWNGQPAENYKNTQPIMDTDGSYFVYSKLNVQKSNWEAGNTFTCSVLHEGLHNHHTEKSLSHSPGK
VL: SDTVLTQSPALAVSPGERVTISCKASESVSSHMHWYQQKPGQQPKLLIYKASNLASGVPARFSGSGSGTDFTLTIDPVEADDTATYFCQQGWNGPFTFGAGTRLELKRAVD
notes: Heavy chain assembled from the VH entry and the constant region entry named for the Fc format; also called mIgG1-D265A Fc variant of MIAP301
Turning to B5, the binding result in test [6] is given as “binds”.

B6: MIAP301-mIgG2a (antibody)
heavy: QVKLLQSGAALVKPGASVKMSCQASGYSFTDYWVTWVKQSHGQSLEWIGEIYPSNTVTNFNDNFKGKATLTVDKSTSTAYMELSRLTSEDSAIYYCTRLGNSGYRVGWFLYWGQGTLVTVISASTTAPSVYPLAPVCGGTTGSSVTLGCLVKGYFPEPVTLTWNSGSLSSGVHTFPALLQSGLYTLSSSVTVTSNTWPSQTITCNVAHPASSTKVDKKIEPRVPITQNPCPPLKECPPCAAPDLLGGPSVFIFPPKIKDVLMISLSPMVTCVVVDVSEDDPDVQISWFVNNVEVHTAQTQTHREDYNSTLRVVSALPIQHQDWMSGKEFKCKVNNRALPSPIEKTISKPRGPVRAPQVYVLPPPAEEMTKKEFSLTCMITGFLPAEIAVDWTSNGRTEQNYKNTATVLDSDGSYFMYSKLRVQKSTWERGSLFACSVVHEGLHNHLTTKTISRSLGK
VL: B5 VL
notes: Heavy chain assembled from the VH entry and the constant region entry named for the Fc format; also called mIgG2a Fc variant of MIAP301; anti-mCD47 ab clone MIAP301 (mIgG2a Fc)
Consider B6, for which, in test [6], the binding result is “binds”.

B7: MIAP301-mIgG1 (antibody)
heavy: QVKLLQSGAALVKPGASVKMSCQASGYSFTDYWVTWVKQSHGQSLEWIGEIYPSNTVTNFNDNFKGKATLTVDKSTSTAYMELSRLTSEDSAIYYCTRLGNSGYRVGWFLYWGQGTLVTVISAS
VL: B5 VL
notes: also called mIgG1 Fc variant of MIAP301; not shown: mouse IgG1 heavy chain constant region, wild type
As to B7, the binding result in test [6] is on record as “binds”.
